Experimental data published in publication PMC11718114 (Nature Communications, 2025).
One block for each binder: values may come before it.

Columns and labels:
Conditions in all cases: both partners purified
[1] = biological target: T1, PI3Kα-RBD (PIK3CA-RBD(157-289)) (human, UniProt P42336 157-289); assay: ITC; GMPPNP-bound RAS (300–500 μM) in the syringe, PI3K isoform or PI3Kα-RBD (30–50 μM) in the cell; 25 °C; 20 mM HEPES pH 7.4, 150 mM NaCl, 5 mM MgCl2, 1 mM TCEP; one set of sites; duplicates
T1 construct: also called p110α-RBD; p110α RBD; source: E. coli, purified (IMAC, TEV cleavage, second IMAC, SEC); not shown: His6, N-terminal, cleaved; MBP, N-terminal, cleaved

[2] = biological target: T2, PI3Kα: p110α(2-1068) W1057A/I1058A/F1059A + p85(322-600) (human, UniProt P42336 2-1068; P27986 322-600, W1057A | I1058A | F1059A); assay: as above
T2 construct: PIK3CA (p110α, catalytic subunit of PI3Kα), human, residues 2-1068; PIK3R1 (p85α regulatory subunit), human, residues 322-600 (nSH2-iSH2), untagged; also called PIK3CA(2-1068)W1057A/I1058A/F1059A + PIK3R1(322-600); p110α/p85; source: insect cells (baculovirus), co-expressed, purified (IMAC, TEV cleavage, second IMAC, anion exchange, SEC); not shown: His6, N-terminal, cleaved; MBP, N-terminal, …

[3] = biological target: T3, PI3Kα-RBD, PIK3CA-RBD(157-289) (human, UniProt P42336 157-289); assay: ITC; RAS GTPase (GMPPNP-bound, 300–500 μM) in the syringe, PI3K isoform or PI3Kα-RBD (30–50 μM) in the cell; 25 °C; 20 mM HEPES pH 7.4, 150 mM NaCl, 5 mM MgCl2, 1 mM TCEP; one set of sites; two replicates
T3 construct: also called PI3Ka-RBD; p110α-RBD; source: E. coli, purified (IMAC, TEV cleavage, second IMAC, SEC); not shown: His6, N-terminal, cleaved; MBP, N-terminal, cleaved

[4] = biological target: T4, PI3Kα: p110α(2-1068)W1057A/I1058A/F1059A + p85(322-600) (human, UniProt P42336 2-1068; P27986 322-600, W1057A | I1058A | F1059A); assay: as above
T4 construct: human PIK3CA (p110α), residues 2-1068; human PIK3R1 (p85α), residues 322-600 (nSH2-iSH2), untagged; also called PI3Ka; PI3Kα (p110α + p85); source: insect cells (baculovirus), co-expressed, purified (IMAC, TEV cleavage, second IMAC, anion exchange, SEC); not shown: His6, N-terminal, cleaved; MBP, N-terminal, cleaved

binding result [1]: binds | binding result [2]: binds
B1: RRAS(22-192) (domain or fragment, human, UniProt P10301 22-192, looked up)
chain: GDPPPSETHKLVVVGGGGVGKSALTIQFIQSYFVSDYDPTIEDSYTKICSVDGIPARLDILDTAGQEEFGAMREQYMRAGHGFLLVFAINDRQSFNEVGKLFTQILRVKDRDDFPVVLVGNKADLESQRQVPRSEASAFGASHHVAYFEASAKLRLNVDEAFEQLVRAVRK
notes: source: E. coli, purified (IMAC, TEV cleavage, second IMAC, SEC); exchanged to GMPPNP; not shown: His6, N-terminal, cleaved; MBP, N-terminal, cleaved

Kd [3]: 4.9 µM | stoichiometry N [3]: 1.12 sites | Kd [4]: 2.1 µM | stoichiometry N [4]: 0.95 sites
B2: RRAS2(1-179)-Q36A, GMPPNP-bound (domain or fragment, human, UniProt P62070 1-179, looked up)
chain: MAAAGWRDGSGQEKYRLVVVGGGGVGKSALTIQFIASYFVTDYDPTIEDSYTKQCVIDDRAARLDILDTAGQEEFGAMREQYMRTGEGFLLVFSVTDRGSFEEIYKFQRQILRVKDRDEFPMILIGNKADLDHQRQVTQEEGQQLARQLKVTYMEASAKIRMNVDQAFHELVRVIRKFQ
notes: limits for the ITC are not separately stated; also called RRAS2-Q36A; source: E. coli, purified (IMAC, TEV cleavage, second IMAC, SEC); not shown: His6, N-terminal, cleaved; MBP, N-terminal, cleaved

fold increase in binding affinity against wild-type RRAS2 [1]: 2 fold
B3: RRAS2(1-179)-Q36A (domain or fragment, human, UniProt P62070 1-179, looked up)
chain: B2 chain
notes: RRAS2 (TC21), human, residues 1-179; Limits 1-179 are stated for the crystals; also called RRAS2-Q36A; source: E. coli, purified (IMAC, TEV cleavage, second IMAC, SEC); exchanged to GMPPNP; not shown: His6, N-terminal, cleaved; MBP, N-terminal, cleaved
